From patent publication US20240294634A1 (INNATE PHARMA, published 2024) come the findings set out here.

The target in test [1] is T1, ILT2 mutant 2 (human, UniProt Q8NHL6 24-650).
T1 construct: Transfected in HEK-293T cells; also called M2
The experiment in a line: flow cytometry, HEK293T cells with ILT2 mutant.

The target of test [2] is T2, ILT-2_6×His recombinant protein (human, UniProt Q8NHL6 24-458).
T2 construct: also called recombinant 6×HIS tagged ILT2; recombinant human ILT2 proteins
The experiment in a line: SPR, mAb captured on Protein-A, soluble ILT2 analyte. How it is done: Measurements were performed on a Biacore T200 apparatus (Biacore GE Healthcare) at 25° C. In all Biacore experiments HBS-EP+ (Biacore GE Healthcare) and NaOH 10 mM served as running buffer and regeneration buffer respectively. Sensorgrams were analyzed with Biacore T100 Evaluation software. Protein-A was purchased from (GE Healthcare). Human ILT2 recombinant proteins were cloned, produced and purified at Innate Pharma. Protein-A proteins were immobilized covalently to carboxyl groups in the dextran layer on a Sensor Chip CM5. The chip surface was activated with EDC/NHS (N-ethyl-N′-(3-dimethylaminopropyl) carbodiimidehydrochloride and N-hydroxysuccinimide (Biacore GE Healthcare)). Protein-A was diluted to 10 μg/ml in coupling buffer (10 mM acetate, pH 5.6) and injected until the appropriate immobilization level was reached (i.e. 2000 RU). Deactivation of the remaining activated groups was performed using 100 mM ethanolamine pH 8 (Biacore GE Healthcare). […] For blank subtraction, cycles were performed again replacing ILT2 proteins with running buffer. The monovalent affinity analysis was conducted following a regular Capture-Kinetic protocol as recommended by the manufacturer (Biacore GE Healthcare kinetic wizard). Seven serial dilutions of human ILT2 proteins, ranging from 6.25 to 400 nM were sequentially injected over the captured antibodies and allowed to dissociate for 10 min before regeneration. The entire sensorgram sets were fitted using the 1:1 kinetic binding model.

Test [3] addresses T3, Human ILT-2 (complete form) expressed at the cell surface (human, UniProt Q8NHL6 24-650).
T3 construct: also called LILRB1; CHO-ILT2
The experiment in a line: flow cytometry titration on cells transfected with wild-type ILT2 (WT).

The target in test [4] is T4, ILT2 mutant 3 (human, UniProt Q8NHL6 24-650).
T4 construct: Transfected in HEK-293T cells
The experiment in a line: flow cytometry, HEK293T cells with ILT2 mutant.

The target in test [5] is T5, ILT2 mutant 3b (human, UniProt Q8NHL6 24-650).
T5 construct: Transfected in HEK-293T cells
The experiment in a line: flow cytometry, HEK293T cells with ILT2 mutant.

Test [6] deals with T6, ILT2 mutant 4 (human, UniProt Q8NHL6 24-650).
T6 construct: Transfected in HEK-293T cells
T6 sequence (Q8NHL6 other isoform, or with tags, fused parts or gaps mutant): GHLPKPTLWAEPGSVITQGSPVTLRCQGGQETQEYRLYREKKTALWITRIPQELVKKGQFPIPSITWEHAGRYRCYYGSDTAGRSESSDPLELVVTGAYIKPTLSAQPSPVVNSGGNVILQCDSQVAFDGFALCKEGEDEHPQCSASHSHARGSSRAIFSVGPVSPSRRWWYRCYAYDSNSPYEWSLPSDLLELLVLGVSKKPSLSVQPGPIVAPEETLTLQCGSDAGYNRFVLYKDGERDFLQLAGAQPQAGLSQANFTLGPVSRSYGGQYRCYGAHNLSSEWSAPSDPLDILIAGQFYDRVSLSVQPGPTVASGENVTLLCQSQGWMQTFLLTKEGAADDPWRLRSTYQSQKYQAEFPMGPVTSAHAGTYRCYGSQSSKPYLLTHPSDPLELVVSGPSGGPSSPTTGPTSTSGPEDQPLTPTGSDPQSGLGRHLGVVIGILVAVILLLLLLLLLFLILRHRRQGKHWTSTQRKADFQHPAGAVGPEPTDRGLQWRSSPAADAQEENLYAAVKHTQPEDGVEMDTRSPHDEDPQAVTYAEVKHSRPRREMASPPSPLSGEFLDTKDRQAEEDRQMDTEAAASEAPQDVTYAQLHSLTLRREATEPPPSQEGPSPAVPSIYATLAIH
The test is described as follows: flow cytometry, HEK293T cells with ILT2 mutant.

For test [7], the target named is T7, ILT2 mutant 5 (human, UniProt Q8NHL6 24-650).
T7 construct: Transfected in HEK-293T cells
T7 sequence (Q8NHL6 other isoform, or with tags, fused parts or gaps mutant): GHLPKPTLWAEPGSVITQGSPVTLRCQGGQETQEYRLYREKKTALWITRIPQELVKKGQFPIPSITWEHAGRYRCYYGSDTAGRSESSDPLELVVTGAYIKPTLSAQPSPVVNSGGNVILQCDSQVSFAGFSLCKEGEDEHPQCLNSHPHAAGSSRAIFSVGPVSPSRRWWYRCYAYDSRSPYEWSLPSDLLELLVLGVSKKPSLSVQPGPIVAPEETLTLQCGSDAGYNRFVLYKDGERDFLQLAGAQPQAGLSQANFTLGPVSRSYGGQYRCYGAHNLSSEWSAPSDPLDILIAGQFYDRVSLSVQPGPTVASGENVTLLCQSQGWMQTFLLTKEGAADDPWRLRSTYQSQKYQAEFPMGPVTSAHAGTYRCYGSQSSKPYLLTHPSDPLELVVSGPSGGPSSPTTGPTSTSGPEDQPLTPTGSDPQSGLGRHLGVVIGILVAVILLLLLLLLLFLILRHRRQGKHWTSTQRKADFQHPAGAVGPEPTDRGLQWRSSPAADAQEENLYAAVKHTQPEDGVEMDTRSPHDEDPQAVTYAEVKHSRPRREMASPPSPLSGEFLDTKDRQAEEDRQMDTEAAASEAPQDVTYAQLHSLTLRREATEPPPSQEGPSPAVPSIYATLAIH
The experiment in a line: flow cytometry, HEK293T cells with ILT2 mutant.

The target of test [8] is T8, ILT2 mutant 6 (human, UniProt Q8NHL6 24-650).
T8 construct: Transfected in HEK-293T cells
The test is described as follows: flow cytometry, HEK293T cells with ILT2 mutant.

Test [9] concerns the target T9, ILT2 mutant 7 (human, UniProt Q8NHL6 24-650).
T9 construct: Transfected in HEK-293T cells
The test is described as follows: flow cytometry, HEK293T cells with ILT2 mutant.

For test [10], the target named is T10, ILT2 mutant 8 (human, UniProt Q8NHL6 24-650).
T10 construct: Transfected in HEK-293T cells
The test is described as follows: flow cytometry, HEK293T cells with ILT2 mutant.

In test [11] the target is T11, ILT2 mutant 4-1 (human, UniProt Q8NHL6 24-650).
T11 construct: Transfected in HEK-293T cells
T11 sequence (Q8NHL6 other isoform, or with tags, fused parts or gaps mutant): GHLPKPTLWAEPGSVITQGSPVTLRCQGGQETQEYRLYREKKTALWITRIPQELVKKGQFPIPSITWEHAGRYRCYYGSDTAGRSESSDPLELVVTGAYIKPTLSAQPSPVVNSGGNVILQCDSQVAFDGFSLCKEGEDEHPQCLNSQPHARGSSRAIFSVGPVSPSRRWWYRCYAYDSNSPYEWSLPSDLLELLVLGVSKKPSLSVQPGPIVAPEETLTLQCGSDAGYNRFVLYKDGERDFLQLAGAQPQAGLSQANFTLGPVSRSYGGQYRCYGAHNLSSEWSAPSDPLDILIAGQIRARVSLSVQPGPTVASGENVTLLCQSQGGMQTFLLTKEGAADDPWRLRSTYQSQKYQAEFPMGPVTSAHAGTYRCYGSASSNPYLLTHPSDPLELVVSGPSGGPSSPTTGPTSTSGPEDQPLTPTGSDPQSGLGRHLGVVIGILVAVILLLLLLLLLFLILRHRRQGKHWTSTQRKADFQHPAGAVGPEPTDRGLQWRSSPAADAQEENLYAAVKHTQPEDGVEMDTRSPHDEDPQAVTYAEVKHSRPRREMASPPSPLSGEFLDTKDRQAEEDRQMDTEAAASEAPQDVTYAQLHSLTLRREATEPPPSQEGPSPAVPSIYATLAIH
The experiment in a line: flow cytometry, HEK293T cells with ILT2 mutant.

Test [12] deals with T12, ILT2 mutant 4-1b (human, UniProt Q8NHL6 24-650).
T12 construct: Transfected in HEK-293T cells
The experiment in a line: flow cytometry, HEK293T cells with ILT2 mutant.

Test [13] addresses T13, ILT2 mutant 4-2 (human, UniProt Q8NHL6 24-650).
T13 construct: Transfected in HEK-293T cells
The test is described as follows: flow cytometry, HEK293T cells with ILT2 mutant.

In test [14] the target is T14, ILT2 mutant 4-3 (human, UniProt Q8NHL6 24-650).
T14 construct: Transfected in HEK-293T cells
The test is described as follows: flow cytometry, HEK293T cells with ILT2 mutant.

Test [15] has as its target T15, ILT2 mutant 4-4 (human, UniProt Q8NHL6 24-650).
T15 construct: Transfected in HEK-293T cells
The test is described as follows: flow cytometry, HEK293T cells with ILT2 mutant.

For test [16], the target named is T16, ILT2 mutant 4-5 (human, UniProt Q8NHL6 24-650).
T16 construct: Transfected in HEK-293T cells
The test is described as follows: flow cytometry, HEK293T cells with ILT2 mutant.

T2 sequence (Q8NHL6 other isoform, or with tags, fused parts or gaps limits assumed): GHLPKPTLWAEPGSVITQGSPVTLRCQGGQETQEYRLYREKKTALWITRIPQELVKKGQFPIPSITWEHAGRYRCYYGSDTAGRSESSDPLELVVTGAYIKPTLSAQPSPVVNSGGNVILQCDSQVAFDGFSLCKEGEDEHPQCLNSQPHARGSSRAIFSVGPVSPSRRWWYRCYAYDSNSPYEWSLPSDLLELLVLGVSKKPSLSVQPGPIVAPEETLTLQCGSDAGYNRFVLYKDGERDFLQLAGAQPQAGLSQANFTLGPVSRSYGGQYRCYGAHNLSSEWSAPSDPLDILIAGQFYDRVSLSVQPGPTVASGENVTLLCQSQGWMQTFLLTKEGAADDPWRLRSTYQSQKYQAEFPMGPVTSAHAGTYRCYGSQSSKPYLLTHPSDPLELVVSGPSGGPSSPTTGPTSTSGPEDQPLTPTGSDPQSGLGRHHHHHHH
T9 sequence (Q8NHL6 other isoform, or with tags, fused parts or gaps mutant): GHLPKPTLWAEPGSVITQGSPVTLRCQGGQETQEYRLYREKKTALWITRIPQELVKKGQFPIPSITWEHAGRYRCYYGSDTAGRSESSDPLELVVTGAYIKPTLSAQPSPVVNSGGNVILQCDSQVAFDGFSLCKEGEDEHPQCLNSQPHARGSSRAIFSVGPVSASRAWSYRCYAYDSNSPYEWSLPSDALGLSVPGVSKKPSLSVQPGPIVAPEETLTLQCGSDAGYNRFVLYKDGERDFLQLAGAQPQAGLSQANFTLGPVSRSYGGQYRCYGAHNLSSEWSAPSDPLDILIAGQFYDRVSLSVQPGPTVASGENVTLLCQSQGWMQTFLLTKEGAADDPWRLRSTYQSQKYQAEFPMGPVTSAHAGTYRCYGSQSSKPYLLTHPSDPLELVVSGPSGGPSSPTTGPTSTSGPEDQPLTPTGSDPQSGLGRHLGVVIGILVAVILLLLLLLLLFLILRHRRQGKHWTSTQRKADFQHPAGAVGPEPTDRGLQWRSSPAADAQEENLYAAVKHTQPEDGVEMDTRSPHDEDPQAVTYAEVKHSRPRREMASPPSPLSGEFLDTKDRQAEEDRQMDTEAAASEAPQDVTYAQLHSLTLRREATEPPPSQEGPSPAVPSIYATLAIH
T3 sequence (Q8NHL6 24-650): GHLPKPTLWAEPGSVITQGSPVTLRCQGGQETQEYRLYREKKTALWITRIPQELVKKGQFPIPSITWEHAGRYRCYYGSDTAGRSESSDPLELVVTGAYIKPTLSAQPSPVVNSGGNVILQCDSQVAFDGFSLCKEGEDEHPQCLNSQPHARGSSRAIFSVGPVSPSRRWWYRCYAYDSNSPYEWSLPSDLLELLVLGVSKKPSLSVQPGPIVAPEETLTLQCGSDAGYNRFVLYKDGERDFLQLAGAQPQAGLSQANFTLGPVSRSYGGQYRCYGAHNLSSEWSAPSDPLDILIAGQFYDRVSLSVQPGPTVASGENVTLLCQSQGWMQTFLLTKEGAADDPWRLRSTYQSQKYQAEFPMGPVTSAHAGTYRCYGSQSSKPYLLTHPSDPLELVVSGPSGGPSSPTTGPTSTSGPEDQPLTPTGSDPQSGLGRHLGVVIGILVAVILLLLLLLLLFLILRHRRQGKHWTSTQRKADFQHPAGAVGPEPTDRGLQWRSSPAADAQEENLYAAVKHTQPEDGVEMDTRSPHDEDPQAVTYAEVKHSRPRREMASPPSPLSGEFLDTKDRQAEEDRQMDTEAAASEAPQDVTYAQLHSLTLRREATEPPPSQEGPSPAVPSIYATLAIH
T1 sequence (Q8NHL6 other isoform, or with tags, fused parts or gaps mutant): as the sequence (Q8NHL6 24-650) above, with E34A, R36A, Y76I, A82S, R84L counted along it
T13 sequence (Q8NHL6 other isoform, or with tags, fused parts or gaps mutant): as the sequence (Q8NHL6 24-650) above, with W328G, Q330H, R347A, T349A, Y350S, Y355A counted along it

B1: 2H2A (antibody, V domains shown)
VH: EVKLEESGPELVKPGASVKLSCKASGYTFTNYYMQWVKQRPGQGLEWIGWIFPGSGESSYNEKFKGKATLSADTSSTTAYMQLSSLTSEDSAVYFCARTWNYDARWGYWGQGTTLTVSS
VL: DILMTQSPASLAVSLGQRATISCIPSESIDSYGISFMHWYQQKPGQPPKLLIYRASNLESGIPARFSGSGSRTDFTLTINPVEADDVATYYCQQSNEDPFTFGSGTKLELK
Turning to B1, in test [1], the binding result is recorded as “no binding”.

B2: 18E1 (antibody, human IgG1, V domains shown)
VH: QVQLQQSGAELVKPGASVRLSCKASGYTFTAHTIHWVKQRSGQGLEWIGWLYPGSGSIKYNEKFKDKATLTADKSSSTVYMELSRLTSEDSAVYFCARHTNWDFDYWGQGTTLTVSS
VL: NIVLTQSPASLAVSLGQRATISCKASQSVDYGGASYMNWYQQKPGQPPKLLIYAASNLESGIPARFSGSGSGTDLTLNIHPVEEEDAAMYYCQQSNEEPWTFGGGTKLEIK
As for B2, the kon in test [2] worked out at 750000 M⁻¹ s⁻¹.

B3: 27H5 (antibody, human IgG1, V domains shown)
VH: QVQLKESGPGLVAPSQSLSITCTVSGFSLTSYGVSWVRQPPGKGLEWLGVIWGDGNTNYHSALISRLSISKDNSKSQVFLKLNSLQTDDTATYYCARTNWDGWFAYWGQGTLVTVSA
VL: DIVMTQSHKFMSTSVGDRVSITCKASQDVGTAVAWYQQKPGQSPKLLIYWASTRHTGVPDRFTGSGSGTDFTLTISNVQSEDLADYFCQQYRSYPLGTFGGGTKLEIK
For the molecule B3, in [2], the association rate constant (kon) stood at 660000 M⁻¹ s⁻¹.

B4: 3H5 (antibody, human IgG1, V domains shown)
VH: QVQLKESGPGLVAPSQSLSITCTVSGFSLTSYGVSWVRQPPGKGLEWLGVIWGDGSTNYHSALISRLSISKDNSKSQVFLKLNSLQTDDTATYYCAKPRWDDYAMDYWGQGTSVTVSS
VL: DIQMTQTTSSLSASLGDRVTISCRASQDISNYLNWYQQKPDGTVKLLIYYTSRLHSGVPSRFSGSGSGTDYSLTISNLEQEDIATYFCQQGNTLWTFGGGTKLEIK
As to B4, the kon in test [2] was 280000 M⁻¹ s⁻¹. The “EC50 (read off the curve)” value in [3] is approximately 1 µg/mL.

B5: 12D12 (antibody, human IgG1, V domains shown)
VH: QVQLQQPGAELVKPGASVRMSCKASGYTFTSYWVHWVKQRPGQGLEWIGVIDPSDSYTSYNQNFKGKATLTVDTSSKTAYIHLSSLTSEDSAVYFCARGERYDGDYFAMDYWGQGTSVTVSS
VL: DIVMTQSPASLSVSVGETVTITCRASENIYSNLAWYQQKQGKSPQLLVYAATNLADGVPSRFSGSRSGTQYSLKINSLQSEDFGTYYCQHFWNTPRTFGGGTKLEIK
notes: also called 12012
Take B5: the binding result in test [4], in [5], in test [6], in [7], in test [8] and in [9] was “binds” in each case. Besides, the binding result in [10], in test [11], in test [12], in [13], in [14] and in [15] was “binds” each time. In addition, the binding result in test [16] is “binds”.
